In patent US20130288266A1 (ROCHE DIAGNOSTICS OPERATIONS, published 2013):
“And” between values parts separate entries of the source, which are not always exact repeats. Equal entries are not always repeated.

Legend:
[1] = target: T1, IGF-1R(1340-1366)[1346-pTyr]amid, phosphorylated IGF-1R peptide (phosphotyrosine at 1346 (IGF-1R numbering); C-terminal amide; in Examples 2.6 and 2.7 a biotinylated PEG-linker bound via glutamic acid at position 1340); assay: SPR (Biacore 3000, SA sensor, 25 C): both ssFab' hybridized on the immobilized biotinylated T40-Bi linker, peptide injected as analyte
T1 construct: also called pIGF-1R peptide; pIGF-1R
T1 peptide: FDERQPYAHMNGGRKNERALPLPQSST
Procedure: (§1) As a control, buffer was injected instead of the ssFabs.
(§2) The system was regenerated after each concentration step with a 12 sec pulse of 250 mM NaOH and was reloaded with ssFab′ ligand.

[2] = target: T2, IGF-1R(1340-1366)amid, non-phosphorylated IGF-1R peptide (C-terminal amide; in Example 2.6 a biotinylated PEG-linker bound via glutamic acid at position 1340); assay: as above
T2 construct: also called Glu(Bi-PEG-1340]amid
T2 peptide: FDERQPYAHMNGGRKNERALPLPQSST
Procedure: as §1, §2

[3] = target: T1, IGF-1R(1340-1366)[1346-pTyr]amid, …; assay: SPR (Biacore 3000, 25 C), dual binder on biotinylated linker on SA chip, peptide injected; T40 linker (linker 10, spacer T20-Biotin-dT-T20)
[4] = target: T1, IGF-1R(1340-1366)[1346-pTyr]amid, …; assay: SPR (Biacore 3000, 25 C), dual binder on biotinylated linker on SA chip, peptide injected; T0 linker (no spacer)
[5] = target: T1, IGF-1R(1340-1366)[1346-pTyr]amid, …; assay: SPR (Biacore 3000, SA sensor, 25 C): both ssFab' hybridized on the immobilized biotinylated T0-Bi linker, peptide injected as analyte
Procedure: as §1, §2

[6] = target: T2, IGF-1R(1340-1366)amid, …; assay: as above
Procedure: as §1, §2

[7] = target: T1, IGF-1R(1340-1366)[1346-pTyr]amid, …; assay: SPR sandwich assay (Biacore T100, 13 C), FIG. 7
Procedure: A Biacore™ T100 instrument (GE Healthcare) was used with a Biacore™ CM5 sensor mounted into the system. The sensor was preconditioned by a 1 min injection at 100 μl/min of 0.1% SDS, 50 mM NaOH, 10 mM HCl and 100 mM H3PO4.
The Biacore™ T100 System was driven under the control software V1.1.1. Polyclonal rabbit IgG antibody <IgGFCγM>R (Jackson ImmunoResearch Laboratories Inc.) at 30 μg/ml in 10 mM Na-Acetate pH 4.5 was immobilized at 10 000 RU on the flow cells 1, 2, 3, and 4, respectively, via EDC/NHS chemistry according to the manufacturer's instructions. Finally, the sensor surface was blocked with 1M ethanolamine. The complete experiment was driven at 13° C.
3 μM of an IgG fragment mixture (of IgG classes IgG1, IgG2a, IgG2b, IgG3) containing blocking solution was injected at 30 μl/min for 5 min.

[8] = target: T1, IGF-1R(1340-1366)[1346-pTyr]amid, …; assay: SPR (Biacore 2000, 25 C), biotinylated peptide on SA chip, 100 nM ssFab' injected
Procedure: (§3) 100 nM of analyte (i.e. in these experiments a bi-valent dual binding agent) in solution was injected at 50 μl/min for 240 sec association time and dissociation was monitored for 500 sec. Efficient regeneration was achieved by using a 1 min injection step at 50 μl/min with 80 mM NaOH. Flow cell 1 served as a reference. A blank buffer injection was used instead of an antigen injection to double reference the data by buffer signal subtraction.
(§4) (The digoxigenylation of the middle thymidine (T(-Dig)) in the above linkers is without relevance to these experiments.)
(§5) Report points were set at the end of the analyte association phase (Binding Late, BL) and at the end of the analyte dissociation phase (Stability Late, SL) to monitor the response unit signal heights of each interaction. The dissociation rates kd (1/s) were calculated according to a linear 1:1 Langmuir fit using the Biacore™ evaluation software 4.1. The complex halftimes in minutes were calculated upon the formula In(2)/(60*kd).

[9] = target: T2, IGF-1R(1340-1366)amid, …; assay: as above
Procedure: as §3, §4, §5

[10] = target: T1, IGF-1R(1340-1366)[1346-pTyr]amid, …; assay: SPR (Biacore 3000, SA sensor, 25 C): only ssFab' 1.4.168 hybridized on the immobilized biotinylated T0-Bi linker, peptide injected as analyte
Procedure: as §1, §2

[11] = target: T2, IGF-1R(1340-1366)amid, …; assay: as above
Procedure: as §1, §2

[12] = target: T1, IGF-1R(1340-1366)[1346-pTyr]amid, …; assay: SPR (Biacore 3000, SA sensor, 25 C): only ssFab' 1.4.168 hybridized on the immobilized biotinylated 8xC18 linker, pIGF-1R peptide injected as analyte
Procedure: 89 RU amino-PEO-biotin were captured on the reference flow cell 1.
The system was regenerated after each concentration step with a 12 sec pulse of 250 mM NaOH and was reloaded with ssFab ligand.

[13] = target: T3, IR (insulin receptor) in untreated IR overexpressing 3T3 cells (UniProt P06213 28-1382, limits assumed); assay: IHC (Ventana BenchMark XT), ssFab' on 8xC18 linker, FFPE 3T3 cells
T3 construct: whole, on cells; also called IR (unstimulated)
Procedure: (§6) In order to test the specificity of the anti-pIGF-1R dual binder molecule an elaborate test system based on formalin-fixed paraffin-embedded (FFPE) 3T3 cells was used. 3T3 cells had been stably transfected with either IGF-1R or IR expression vectors. Cells were fixed with formalin and embedded in paraffin according to standard protocols. Prior to fixation cells were stimulated with 100 ng/ml of either IGF-1 or Insulin to induce IGF1-R or IR phosphorylation or were left untreated.
(§7) A biotin label within the linker molecule served as a detection tag for the streptavidin-based Ventana iVIEW DAB detection kit.

[14] = target: T4, phosphorylated IR in IR overexpressing 3T3 cells stimulated with Insulin (UniProt P06213 28-1382, limits assumed, phosphorylated after stimulation with 100 ng/ml Insulin); assay: as above
T4 construct: whole, on cells; also called pIR (cells)
Procedure: as §6, §7

[15] = target: T1, IGF-1R(1340-1366)[1346-pTyr]amid, …; assay: SPR (Biacore 3000, SA sensor, 25 C): only ssFab' 1.4.168 hybridized on the immobilized biotinylated T40-Bi linker, peptide injected as analyte
Procedure: as §1, §2

[16] = target: T2, IGF-1R(1340-1366)amid, …; assay: as above
Procedure: as §1, §2

[17] = target: T5, IGF-1R in untreated IGF-1R overexpressing 3T3 cells (UniProt P08069 31-1367, limits assumed); assay: IHC (Ventana BenchMark XT), ssFab' on 8xC18 linker, FFPE 3T3 cells
T5 construct: whole, on cells; also called IGF-1R (unstimulated)
Procedure: as §6, §7

[18] = target: T6, human_HER3(1242-1267)-Bi-PEG-amide (human, C-terminal Bi-PEG-amide (biotin); singly grafted on streptavidin); assay: SPR kinetic screening (Biacore A100), mAb captured by anti-mouse IgG Fc, peptide singly grafted on streptavidin injected
T6 construct: Injected as analyte, singly grafted on streptavidin
T6 peptide: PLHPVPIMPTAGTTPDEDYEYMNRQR
Procedure: A Biacore™ A100 instrument under control of the software version V1.1 is used. A Biacore™ CM5 chip is mounted into the instrument and is hydrodynamically addressed conditioned according to the manufacturer's instructions. As a running buffer an HBS-EP buffer is used (10 mM HEPES (pH 7.4), 150 mM NaCl, 1 mM EDTA, 0.05% (w/v) P20). A polyclonal rabbit anti-mouse IgG Fc capture antibody is immobilized at 30 μg/ml in 10 mM sodium acetate buffer (pH 4.5) to spots 1, 2, 4 and 5 in flow cells 1, 2, 3 and 4 at 10,000 RU. The antibody is covalently immobilized via NHS/EDC chemistry. The sensor is deactivated thereafter with a 1 M ethanolamine solution. Spots 1 and 5 are used for the determination and spots 2 and 4 are used as reference. Prior to application to the sensor chip the hybridoma supernatants containing mAbs are diluted 1:2 in HBS-EP buffer. The diluted solution is applied at a flow rate of 30 μl/min for 1 min. […] Thereafter, the signal is recorded for 5 min dissociation time. The sensor is regenerated by injecting a 10 mM glycine-HCl solution (pH 1.7) for 2 min, at a flow rate of 30 μl/min. The dissociation rate constant kd (1/s) is calculated according to a Langmuir model using the evaluation software according to the manufacturer's instructions.

T3 sequence (P06213 28-1382 limits assumed): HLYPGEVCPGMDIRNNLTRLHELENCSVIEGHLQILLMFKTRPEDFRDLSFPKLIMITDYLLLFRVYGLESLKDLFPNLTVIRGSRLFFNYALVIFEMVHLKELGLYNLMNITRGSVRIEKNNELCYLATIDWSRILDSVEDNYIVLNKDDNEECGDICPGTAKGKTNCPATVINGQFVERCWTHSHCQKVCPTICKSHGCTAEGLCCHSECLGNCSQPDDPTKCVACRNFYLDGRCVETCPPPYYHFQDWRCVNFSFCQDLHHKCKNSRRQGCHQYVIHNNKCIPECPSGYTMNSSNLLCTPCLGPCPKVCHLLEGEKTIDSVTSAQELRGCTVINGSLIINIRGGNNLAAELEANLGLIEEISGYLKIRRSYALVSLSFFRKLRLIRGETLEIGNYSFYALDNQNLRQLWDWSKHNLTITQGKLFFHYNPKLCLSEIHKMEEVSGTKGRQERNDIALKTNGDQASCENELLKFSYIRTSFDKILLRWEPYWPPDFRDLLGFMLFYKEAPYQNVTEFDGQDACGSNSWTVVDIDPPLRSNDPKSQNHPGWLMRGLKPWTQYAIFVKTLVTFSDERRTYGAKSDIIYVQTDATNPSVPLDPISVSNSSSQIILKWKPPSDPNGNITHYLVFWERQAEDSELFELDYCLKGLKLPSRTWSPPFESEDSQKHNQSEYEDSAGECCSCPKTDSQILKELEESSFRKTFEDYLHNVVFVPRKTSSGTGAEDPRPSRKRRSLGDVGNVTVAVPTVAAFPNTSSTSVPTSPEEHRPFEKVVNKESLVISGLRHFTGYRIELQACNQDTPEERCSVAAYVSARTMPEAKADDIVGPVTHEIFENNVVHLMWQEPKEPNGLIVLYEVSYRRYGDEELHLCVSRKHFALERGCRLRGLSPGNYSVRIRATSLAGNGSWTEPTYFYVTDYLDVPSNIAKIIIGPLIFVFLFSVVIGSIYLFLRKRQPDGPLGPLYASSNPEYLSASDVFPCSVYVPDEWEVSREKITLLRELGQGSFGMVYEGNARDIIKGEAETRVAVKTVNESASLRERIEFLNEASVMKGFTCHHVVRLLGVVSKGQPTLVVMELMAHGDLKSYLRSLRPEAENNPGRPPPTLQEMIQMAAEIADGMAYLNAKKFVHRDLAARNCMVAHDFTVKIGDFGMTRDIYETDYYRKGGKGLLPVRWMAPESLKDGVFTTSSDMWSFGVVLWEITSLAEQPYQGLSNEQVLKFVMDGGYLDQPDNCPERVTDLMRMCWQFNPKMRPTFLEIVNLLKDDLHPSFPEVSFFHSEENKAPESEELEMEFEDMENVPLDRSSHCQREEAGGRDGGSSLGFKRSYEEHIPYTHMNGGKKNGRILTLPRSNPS
T4 sequence (P06213 28-1382 limits assumed): as above
T5 sequence (P08069 31-1367 limits assumed): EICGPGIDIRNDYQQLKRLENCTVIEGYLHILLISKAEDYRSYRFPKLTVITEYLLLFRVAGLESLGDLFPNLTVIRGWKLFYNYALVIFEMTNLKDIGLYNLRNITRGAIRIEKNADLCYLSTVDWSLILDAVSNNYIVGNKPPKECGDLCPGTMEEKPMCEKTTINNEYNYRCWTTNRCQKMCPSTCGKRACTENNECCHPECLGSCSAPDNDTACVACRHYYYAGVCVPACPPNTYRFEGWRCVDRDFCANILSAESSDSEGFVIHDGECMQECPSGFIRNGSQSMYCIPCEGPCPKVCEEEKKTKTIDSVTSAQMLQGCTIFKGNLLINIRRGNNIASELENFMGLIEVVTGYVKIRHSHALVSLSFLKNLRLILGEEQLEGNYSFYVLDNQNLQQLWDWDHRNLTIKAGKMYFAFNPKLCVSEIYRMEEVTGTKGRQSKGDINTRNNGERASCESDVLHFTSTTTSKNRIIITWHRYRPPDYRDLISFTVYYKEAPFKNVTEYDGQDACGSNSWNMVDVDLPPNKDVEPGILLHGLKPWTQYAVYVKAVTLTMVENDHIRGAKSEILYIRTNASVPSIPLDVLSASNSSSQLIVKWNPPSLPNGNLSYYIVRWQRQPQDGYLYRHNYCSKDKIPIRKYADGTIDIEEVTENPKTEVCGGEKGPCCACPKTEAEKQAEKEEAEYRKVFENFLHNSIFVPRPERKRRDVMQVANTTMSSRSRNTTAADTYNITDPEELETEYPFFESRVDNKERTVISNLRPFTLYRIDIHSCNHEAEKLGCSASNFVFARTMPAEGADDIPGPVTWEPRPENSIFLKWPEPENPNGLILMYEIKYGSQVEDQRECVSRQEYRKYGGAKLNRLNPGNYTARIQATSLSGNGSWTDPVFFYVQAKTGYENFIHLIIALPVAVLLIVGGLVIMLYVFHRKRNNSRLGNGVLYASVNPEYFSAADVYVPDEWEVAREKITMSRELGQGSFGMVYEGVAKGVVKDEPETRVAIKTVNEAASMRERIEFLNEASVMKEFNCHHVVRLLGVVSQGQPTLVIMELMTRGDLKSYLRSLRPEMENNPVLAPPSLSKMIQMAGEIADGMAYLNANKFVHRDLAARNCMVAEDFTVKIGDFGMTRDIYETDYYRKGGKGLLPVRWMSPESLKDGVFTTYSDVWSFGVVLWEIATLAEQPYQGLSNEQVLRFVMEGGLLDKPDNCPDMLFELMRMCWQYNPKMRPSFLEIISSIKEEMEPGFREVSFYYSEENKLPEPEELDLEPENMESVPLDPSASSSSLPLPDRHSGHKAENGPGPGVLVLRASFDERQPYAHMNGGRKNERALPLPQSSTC

B1: T40-T-Bi linker dual binder with ssFab' 8.1.2 and ssFab' 1.4.168 (linker 10 of example 2.4) (bispecific antibody, V domains shown)
VH 1: EVQLQQSGPALVKPGASVKMSCKASGFTFTSYVIHWVKQKPGQGLEWIGYLNPYNDNTKYNEKFKGKATLTSDRSSSTVYMEFSSLTSEDSAVYFCARRGIYAYDHYFDYWGQGTSLTVSS
VL 1: QIVLTQSPAIMSASPGEKVTLTCSASSSVNYMYWYQQKPGSSPRLLIYDTSNLASGVPVRFSGSGSVTSYSLTISRMEAEDAATYYCQQWSTYPLTFGAGTKLELK
VH 2: QCDVKLVESGGGLVKPGGSLKLSCAASGFTFSDYPMSWVRQTPEKRLEWVATITTGGTYTYYPDSIKGRFTISRDNAKNTLYLQMGSLQSEDAAMYYCTRVKTDLWWGLAYWGQGTLVTVSA
VL 2: QLVLTQSSSASFSLGASAKLTCTLSSQHSTYTIEWYQQQPLKPPKYVMELKKDGSHTTGDGIPDRFSGSSSGADRYLSISNIQPEDESIYICGVGDTIKEQFVYVFGGGTKVTVLG
modifications: 17 mer ssDNA (SEQ ID NO:6, fluorescein) on hinge cysteine; 19 mer ssDNA (SEQ ID NO:5, Cy5) on hinge cysteine
notes: Two Fab'-ssDNA conjugates hybridised on biotinylated 77-mer DNA linker 10 (T20-Biotin-dT-T20) captured on a streptavidin chip; also called T40-Bi
Kd [1]: 0.0125 nM
Kd [2]: 0.973 nM and 1 nM
t1/2 diss [2]: 4.3 min
Kd [3]: 0.01 nM

B2: T0 dual binding agent with ssFab' 8.1.2 and ssFab' 1.4.168 on the biotinylated T0-Bi 37-mer ssDNA-Linker (linker 17 of example 2.4) (bispecific antibody, V domains shown)
VH 1: EVQLQQSGPALVKPGASVKMSCKASGFTFTSYVIHWVKQKPGQGLEWIGYLNPYNDNTKYNEKFKGKATLTSDRSSSTVYMEFSSLTSEDSAVYFCARRGIYAYDHYFDYWGQGTSLTVSS
VL 1: QIVLTQSPAIMSASPGEKVTLTCSASSSVNYMYWYQQKPGSSPRLLIYDTSNLASGVPVRFSGSGSVTSYSLTISRMEAEDAATYYCQQWSTYPLTFGAGTKLELK
VH 2: QCDVKLVESGGGLVKPGGSLKLSCAASGFTFSDYPMSWVRQTPEKRLEWVATITTGGTYTYYPDSIKGRFTISRDNAKNTLYLQMGSLQSEDAAMYYCTRVKTDLWWGLAYWGQGTLVTVSA
VL 2: QLVLTQSSSASFSLGASAKLTCTLSSQHSTYTIEWYQQQPLKPPKYVMELKKDGSHTTGDGIPDRFSGSSSGADRYLSISNIQPEDESIYICGVGDTIKEQFVYVFGGGTKVTVLG
modifications: 17 mer ssDNA (SEQ ID NO:6, fluorescein) on hinge cysteine; 19 mer ssDNA (SEQ ID NO:5, Cy5) on hinge cysteine
Kd [4]: 0.03 nM
Kd [5]: 0.0344 nM
Kd [6]: 1.2 nM and 1 nM
t1/2 diss [6]: 5 min

B3: murine monoclonal antibody M-1.4.168-IgG (antibody, V domains shown)
VH: DVKLVESGGGLVKPGGSLKLSCAASGFTFSDYPMSWVRQTPEKRLEWVATITTGGTYTYYPDSIKGRFTISRDNAKNTLYLQMGSLQSEDAAMYYCTRVKTDLWWGLAYWGQGTLVTVSA
VL: QLVLTQSSSASFSLGASAKLTCTLSSQHSTYTIEWYQQQPLKPPKYVMELKKDGSHTTGDGIPDRFSGSSSGADRYLSISNIQPEDESIYICGVGDTIKEQFVYVFGGGTKVTVLG
notes: Whole murine IgG from hybridoma; also called mAb 1.4.168; M-1.004.168-IgG
binding result [7]: binds

B4: ssFab' 1.4.168 (Fab' of mAb 1.4.168 covalently linked to 17 mer ssDNA) (Fab, V domains shown)
VH: DVKLVESGGGLVKPGGSLKLSCAASGFTFSDYPMSWVRQTPEKRLEWVATITTGGTYTYYPDSIKGRFTISRDNAKNTLYLQMGSLQSEDAAMYYCTRVKTDLWWGLAYWGQGTLVTVSA
VL: QLVLTQSSSASFSLGASAKLTCTLSSQHSTYTIEWYQQQPLKPPKYVMELKKDGSHTTGDGIPDRFSGSSSGADRYLSISNIQPEDESIYICGVGDTIKEQFVYVFGGGTKVTVLG
modifications: 17 mer ssDNA comprising SEQ ID NO:6 with fluorescein, coupled through maleimide to a cysteine of the Fab' hinge region
notes: Fab' from pepsin cleavage and cysteamine reduction of a murine monoclonal IgG; also called ssFab' 1.004.168; fluorescein-ssFab' 1.4.168
T1/2 dis [8]: 3 min
T1/2 dis [9]: 3 min
Kd [10]: 2.59 nM and 3 nM
t1/2 diss [10]: 4 min
Kd [11]: 1.35 nM and 1 nM
t1/2 diss [11]: 4 min
Kd [12]: 2.96 nM and 3 nM
binding result [13]: no binding (tested: 0.5 µg/ml)
binding result [14]: no binding (tested: 0.5 µg/ml)
Kd [15]: 2.14 nM and 2 nM
Kd [16]: 1.1 nM and 1 nM
t1/2 diss [16]: 3 min

B5: ssFab' 30.4.33 (Fab' of mAb 30.4.33 linked to ssDNA) (Fab, V domains shown)
VH: EVQLQESGPEVAKPGASVKMSCKASGYTFTDYIIHWVKQRPGQDLEWIGYINPYNDKSKYNEKFKDKATLTSDRSSSTSYMDLSTLTSDDSAVYYCTRHGYYRSDGFDYWGQGTTLTVSS
VL: DIVLTQSPTIMSASPGEKVTMTCRASSSVSSSSLHWYQQKPGSSPKLWIYSTSTLASGVPARFSGSGSGTSYSLTISGVETEDAATYYCQQYGTSPYTFGSGTKVDIK
modifications: ssDNA oligonucleotide coupled to the Fab' hinge region
binding result [13]: no binding (tested: 0.5 µg/ml)
binding result [14]: no binding (tested: 0.5 µg/ml)
binding result [17]: no binding (tested: 0.5 µg/ml)

B6: monoclonal antibody 7.2.32 directed against HER3(1242-1267) (antibody, V domains shown)
VH: EVQLQESGGGLVQPKGSLQLSCAASGFTFNTYAMHWVRQAPGKGLEWVARIRTESSDYATDYADSVKDRFIISRDDSQNMLYLQMNNLKSEDTAIYYCVRSSGFDYWGQGTTLTVSS
VL: DIQMTQSPSLPVSLGDQASISCRSSQSLVHDNGNTYLHWFLQKPGQSPKLLIYKVSNRFSGVPDRFGGSGSGTDFTLKISGVEAEDLGVYFCSQGTHVPTFGGGTKLEIK
notes: Mouse monoclonal IgG from hybridoma supernatant, captured by anti-mouse IgG Fc; also called mAb 7.2.32
koff [18]: 0.0023 s⁻¹
